Assay results published in article PMC7924733 (Journal of molecular biology, 2021).
Changes are numbered by the printed parent chain. Names and notes keep the numbering of the source.

B1: His6-Atg16 L71C (natural protein, S. cerevisiae, UniProt Q03818 1-150, looked up)
chain: MGNFIITERKKAKEERSNPQTDSMDDLLIRRLTDRNDKEAHLNELFQDNSGAIGGNIVSHDDALLNTLAICQKELKSKEQEIRRLKEVIALKNKNTERLNDELISGTIENNVLQQKLSDLKKEHSQLVARWLKKTEKETEAMNSEIDGTK
B2: Atg16 L71C L120C (natural protein, S. cerevisiae, UniProt Q03818 1-150, looked up)
chain: B1 chain with L120C
B3: Atg16 L71C L85C L99C L120C (natural protein, S. cerevisiae, UniProt Q03818 1-150, looked up)
chain: B1 chain with L85C, L99C, L120C

Target: the molecule itself
Test: cross-linking

Stoichiometry N, 2:
B1
B2
B3
